Data: US20190309050A1 (SUZHOU THINKING POWER BIOTECHNOLOGY, published 2019)

What was measured:
[1] = molecular target: Robo1 protein (ORIGEN, Art. No.: TP327713) (UniProt Q9Y6N7); experiment: SPR (BIAcore), Robo1 bound to CM5 chip
[2] = molecular target: Robo1 protein (ORIGEN, Art. No.: TP327713) (UniProt Q9Y6N7); experiment: ELISA, Robo1 coated at 1 µg/ml, detection with anti-HSA-HRP; stability test, samples 'after treatment' (treatment not described); after treatment (stability test), binding ELISA on coated Robo1
[3] = molecular target: Robo1 protein (ORIGEN, Art. No.: TP327713) (UniProt Q9Y6N7); experiment: SPR (BIAcore), Robo1 bound to CM5 chip; column headed 'Kd(nM)'
[4] = molecular target: T1, Robo1 protein (ORIGEN, Art. No.: TP327713) (UniProt Q9Y6N7-5 1-1606, limits assumed); experiment: SPR (BIAcore), Robo1 bound to CM5 chip
T1 construct: Bought recombinant protein; also called receptor Robo1; receptor protein Robo1
Protocol: (§1) The affinity constant between the protein and Robo1 protein was detected by SPR (Surface Plasmon resonance BIAcore 200) method. […] Kinetic measurements were performed according to the method referred by Canziani et al. (2004, Anal. Biochem. 325: 301-307). Furthermore, the affinity of the Slit2N protein (Slit2N is a protein having a molecular weight of about 120 kDa at the N-terminus of the Slit2 protein) to Robo1 protein was also determined by the same method.

[5] = molecular target: T1, Robo1 protein (ORIGEN, Art. No.: …); experiment: SPR (BIAcore), Robo1 bound to CM5 chip; column headed 'KD(M)', by arithmetic the dissociation rate; exponent doubtful
Protocol: as §1

[6] = molecular target: T1, Robo1 protein (ORIGEN, Art. No.: …); experiment: SPR (BIAcore), Robo1 bound to CM5 chip; column headed 'Kd(nM)'
Protocol: as §1

Chain of Robo1 protein (ORIGEN, Art. No.: TP327713) (UniProt Q9Y6N7) (Q9Y6N7 other isoform, or with tags, fused parts or gaps limits assumed): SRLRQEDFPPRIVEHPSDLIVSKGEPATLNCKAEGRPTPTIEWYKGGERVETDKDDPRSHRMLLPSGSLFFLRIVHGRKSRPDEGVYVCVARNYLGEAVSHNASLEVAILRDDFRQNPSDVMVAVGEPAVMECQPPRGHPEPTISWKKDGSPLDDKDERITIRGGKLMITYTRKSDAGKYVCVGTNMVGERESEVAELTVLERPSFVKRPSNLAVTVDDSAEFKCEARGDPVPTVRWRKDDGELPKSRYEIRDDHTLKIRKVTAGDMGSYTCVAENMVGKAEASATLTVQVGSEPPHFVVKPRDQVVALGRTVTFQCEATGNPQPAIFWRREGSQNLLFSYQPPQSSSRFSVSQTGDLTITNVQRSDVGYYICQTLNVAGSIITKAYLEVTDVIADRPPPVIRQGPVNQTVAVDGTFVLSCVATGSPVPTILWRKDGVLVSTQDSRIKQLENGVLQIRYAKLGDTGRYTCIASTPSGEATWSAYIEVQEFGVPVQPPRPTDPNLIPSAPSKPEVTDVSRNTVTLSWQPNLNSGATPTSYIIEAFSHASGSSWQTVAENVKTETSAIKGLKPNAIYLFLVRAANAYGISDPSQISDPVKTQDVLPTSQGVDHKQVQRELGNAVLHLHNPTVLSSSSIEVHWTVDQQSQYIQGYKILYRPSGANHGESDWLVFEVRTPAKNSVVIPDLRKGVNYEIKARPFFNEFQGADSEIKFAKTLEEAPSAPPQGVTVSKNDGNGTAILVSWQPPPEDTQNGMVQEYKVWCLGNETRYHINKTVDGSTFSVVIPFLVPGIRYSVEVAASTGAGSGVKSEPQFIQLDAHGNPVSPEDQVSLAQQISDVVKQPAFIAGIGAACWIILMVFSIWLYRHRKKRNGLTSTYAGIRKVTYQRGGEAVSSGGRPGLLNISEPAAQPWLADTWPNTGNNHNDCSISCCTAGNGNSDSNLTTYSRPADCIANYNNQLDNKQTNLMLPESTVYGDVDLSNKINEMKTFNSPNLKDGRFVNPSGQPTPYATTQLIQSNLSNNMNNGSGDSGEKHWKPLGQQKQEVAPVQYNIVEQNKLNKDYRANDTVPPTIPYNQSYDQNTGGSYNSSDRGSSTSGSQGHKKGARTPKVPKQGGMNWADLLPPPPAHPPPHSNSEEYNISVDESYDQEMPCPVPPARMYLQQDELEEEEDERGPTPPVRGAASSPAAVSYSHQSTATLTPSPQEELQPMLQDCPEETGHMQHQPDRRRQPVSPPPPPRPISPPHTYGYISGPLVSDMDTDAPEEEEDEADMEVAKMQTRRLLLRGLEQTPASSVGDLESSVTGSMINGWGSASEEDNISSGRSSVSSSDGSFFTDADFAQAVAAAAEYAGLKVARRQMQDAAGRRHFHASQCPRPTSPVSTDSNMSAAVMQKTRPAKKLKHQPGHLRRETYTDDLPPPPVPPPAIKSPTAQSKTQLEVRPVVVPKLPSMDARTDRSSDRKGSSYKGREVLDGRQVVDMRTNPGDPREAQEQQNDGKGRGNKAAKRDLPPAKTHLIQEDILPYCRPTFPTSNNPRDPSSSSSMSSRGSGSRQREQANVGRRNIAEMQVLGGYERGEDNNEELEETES
T1 sequence (Q9Y6N7 other isoform, or with tags, fused parts or gaps limits assumed): as above

Row | kon [1] [M⁻¹ s⁻¹] | EC50 [2] [nM] | Kd [3] [nM] | kon [4] [M⁻¹ s⁻¹] | koff [5] [s⁻¹] | Kd [6] [nM] | Molecule
1 | 177000 | 215 | 2.8 | – | – | – | Slit2D2-HSA (as disclosed in Patent Application PCT/CN2015/092079) (from UniProt O94813 271-479; P02768 25-609)
2 | – | – | – | 744000 | 0.00339 | 4.5 | Slit2N protein (ligand, UniProt O94813 31-1121, looked up) QCSCSGSTVDCHGLALRSVPRNIPRNTERLDLNGNNITRITKTDFAGLRHLRVLQLMENKISTIERGAFQDLKELERLRLNRNHLQLFPELLFLGTAKLYRLDLSENQIQAIPRKAFRGAVDIKNLQLDYNQISCIEDGAFRALRDLEVLTLNNNNITRLSVASFNHMPKLRTFRLHSNNLYCDCHLAWLSDWLRQRPRVGLYTQCMGPSHLRGHNVAEVQKREFVCSGHQSFMAPSCSVLHCPAACTCSNNIVDCRGKGLTEIPTNLPETITEIRLEQNTIKVIPPGAFSPYKKLRRIDLSNNQISELAPDAFQGLRSLNSLVLYGNKITELPKSLFEGLFSLQLLLLNANKINCLRVDAFQDLHNLNLLSLYDNKLQTIAKGTFSPLRAIQTMHLAQNPFICDCHLKWLADYLHTNPIETSGARCTSPRRLANKRIGQIKSKKFRCSAKEQYFIPGTEDYRSKLSGDCFADLACPEKCRCEGTTVDCSNQKLNKIPEHIPQYTAELRLNNNEFTVLEATGIFKKLPQLRKINFSNNKITDIEEGAFEGASGVNEILLTSNRLENVQHKMFKGLESLKTLMLRSNRITCVGNDSFIGLSSVRLLSLYDNQITTVAPGAFDTLHSLSTLNLLANPFNCNCYLAWLGEWLRKKRIVTGNPRCQKPYFLKEIPIQDVAIQDFTCDDGNDDNSCSPLSRCPTECTCLDTVVRCSNKGLKVLPKGIPRDVTELYLDGNQFTLVPKELSNYKHLTLIDLSNNRISTLSNQSFSNMTQLLTLILSYNRLRCIPPRTFDGLKSLRLLSLHGNDISVVPEGAFNDLSALSHLAIGANPLYCDCNMQWLSDWVKSEYKEPGIARCAGPGEMADKLLLTTPSKKFTCQGPVDVNILAKCNPCLSNPCKNDGTCNSDPVDFYRCTCPYGFKGQDCDVPIHACISNPCKHGGTCHLKEGEEDGFWCICADGFEGENCEVNVDDCEDNDCENNSTCVDGINNYTCLCPPEYTGELCEEKLDFCAQDLNPCQHDSKCILTPKGFKCDCTPGYVGEHCDIDFDDCQDNKCKNGAHCTDAVNGYTCICPEGYSGLFCEFSPPMVLPR
